The source of these data is article PMC10509710.

Test [1] addresses human full-length scavenger receptor class B type 1 (SR-B1), glycosylated (human) (UniProt Q8WTV0). Kind of test: flow cytometry on cells; Sf9 cells 72 h after baculovirus infection, 10 μg/ml DiI-HDL or DiI-oxLDL in ESF 921/0.5% BSA for 90 min at 4 °C; MFI compared with cells infected with empty vector. For orientation: Flow cytometry measures light scatter and fluorescence of single cells or particles in a stream.

The target in test [2] is human full-length cluster of differentiation 36 (CD36), glycosylated (human) (UniProt P16671). The test is described as above.
Chain of human full-length cluster of differentiation 36 (CD36), glycosylated (human) (P16671 whole entry): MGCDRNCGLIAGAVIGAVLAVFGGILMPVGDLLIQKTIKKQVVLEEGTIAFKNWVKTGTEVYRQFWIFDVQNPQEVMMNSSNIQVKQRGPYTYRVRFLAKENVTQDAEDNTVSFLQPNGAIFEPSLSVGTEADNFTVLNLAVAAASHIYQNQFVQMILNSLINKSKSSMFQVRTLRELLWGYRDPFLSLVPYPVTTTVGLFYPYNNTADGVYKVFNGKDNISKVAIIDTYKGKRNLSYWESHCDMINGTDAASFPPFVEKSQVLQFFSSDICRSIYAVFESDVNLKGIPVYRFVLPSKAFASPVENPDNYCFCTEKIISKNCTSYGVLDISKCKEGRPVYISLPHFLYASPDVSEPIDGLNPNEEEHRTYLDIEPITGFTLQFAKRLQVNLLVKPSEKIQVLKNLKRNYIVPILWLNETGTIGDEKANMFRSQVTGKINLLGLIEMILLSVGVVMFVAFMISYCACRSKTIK
The target is the same in test [3]. Kind of test: MST; Cy5-labeled receptor (RED-NHS, lysines) at constant 20 nM, ligand in a 16-point 1:1 dilution series; exchange buffer (50 mM Hepes pH 7.5, 150 mM NaCl, 0.025% LMNG, 0.005% CHS); 25 °C, 40% MST power; apparent Kd, one-site specific binding; molar values from average molecular weights (267.5 kDa HDL, 3500 kDa oxLDL).
The target in test [4] is human full-length scavenger receptor class B type 1 (SR-B1), glycosylated (human) (UniProt Q8WTV0). The description is as above.
Chain of human full-length scavenger receptor class B type 1 (SR-B1), glycosylated (human) (Q8WTV0 other isoform, or with tags, fused parts or gaps): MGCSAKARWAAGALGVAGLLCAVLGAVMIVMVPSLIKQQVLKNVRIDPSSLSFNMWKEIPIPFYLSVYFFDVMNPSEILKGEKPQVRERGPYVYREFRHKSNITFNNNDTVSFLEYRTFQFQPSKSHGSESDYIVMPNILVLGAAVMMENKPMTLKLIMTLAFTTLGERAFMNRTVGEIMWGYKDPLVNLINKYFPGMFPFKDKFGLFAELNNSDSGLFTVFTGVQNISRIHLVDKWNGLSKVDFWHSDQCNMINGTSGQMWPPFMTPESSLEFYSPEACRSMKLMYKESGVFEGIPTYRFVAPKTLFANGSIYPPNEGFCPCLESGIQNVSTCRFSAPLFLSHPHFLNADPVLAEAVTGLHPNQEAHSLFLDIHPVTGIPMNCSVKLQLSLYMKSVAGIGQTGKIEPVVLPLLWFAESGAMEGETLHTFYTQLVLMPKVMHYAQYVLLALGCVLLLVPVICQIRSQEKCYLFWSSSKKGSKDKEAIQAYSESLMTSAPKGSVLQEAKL

Chain of human high-density lipoprotein (HDL), holoparticle (P02647 whole entry, looked up): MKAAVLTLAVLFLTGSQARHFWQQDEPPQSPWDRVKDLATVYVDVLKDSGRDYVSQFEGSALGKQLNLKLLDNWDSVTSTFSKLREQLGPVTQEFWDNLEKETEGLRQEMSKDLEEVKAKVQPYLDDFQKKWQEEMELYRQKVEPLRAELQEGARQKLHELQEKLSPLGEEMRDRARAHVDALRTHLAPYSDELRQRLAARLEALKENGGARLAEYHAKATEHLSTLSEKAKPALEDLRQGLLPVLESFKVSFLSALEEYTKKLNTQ
Chain of DiI-labeled high-density lipoprotein (DiI-HDL) (P02647 whole entry, looked up): as above

In turn, “DiI-labeled high-density lipoprotein (DiI-HDL) (from UniProt P02647 19-267) (complex)” returned a percent increase of DiI-HDL binding (MFI at 4 °C) against empty vector in test [1] of 37%.

“DiI-labeled oxidized low-density lipoprotein (DiI-oxLDL) (complex)” came in with a percent increase of DiI-oxLDL binding (MFI at 4 °C) against empty vector in test [2] of 21%.

For the substance “human high-density lipoprotein (HDL), holoparticle (from UniProt P02647 19-267) (complex)”, the Kd in test [3] amounted to 123 nM; in test [4], 194 nM.
